B1: POU domain, class 2, transcription factor 2, residues 200 to 269; numbered along this chain, P09086 (parent)
chain: LEELEQFARTFKQRRIKLGFTQGDVGLAMGKLYGNDFSQTTISRFEALNLSFKNMCKLKPLLEKWLNDAE

Variants of: B1
Assay: abundance fitness (aPCA) (normalised: wild type 0, dead -1); higher = more abundant; growth selection in yeast, the domain comes from the species named
Conditions: Homo sapiens

Abundance fitness, by site and new letter:
G30: S 0.061, P -0.223, Q 0.107, C -0.068, L -0.044, Y -0.051, I -0.083, R -0.063, D -0.068, V -0.052, F -0.001, A -0.041, H -0.013, K -0.071, W -0.013, N 0.019, T 0.009
L32: M -0.021, S -0.01, T -0.071, P -0.209, C -0.083, D 0.037, Y 0, G -0.08, Q 0.04, I -0.049, A -0.006, W -0.201, V -0.098, H -0.126, F -0.093, K 0.01, R -0.022, N -0.163
A28: E 0.06, M -0.047, T 0.031, S -0.079, G -0.098, V -0.01, I -0.167, F -0.032, H -0.064, Y -0.101, Q 0.061, K -0.021, C -0.108, P -0.616, N -0.095, R -0.027, D 0.024
Y33: L -0.024, P -0.068, Q -0.07, T -0.016, V -0.06, W -0.105, S -0.041, H -0.01, C -0.043, D -0.036, N -0.156, F -0.062, A -0.057, M -0.055, I -0.076, R -0.17, K -0.062, E -0.074
G26: W -0.023, A -0.067, I -0.157, C -0.105, T -0.014, D 0.047, K -0.113, E -0.023, R -0.165, M -0.131, V -0.022, L -0.064, H -0.109, Q 0.042, Y -0.085, F -0.18, P -0.299
D24: Y -0.095
G34: L -0.208, H -0.018, A -0.071, C -0.143, M -0.208, E 0.052, K -0.111, F -0.177, I -0.248, N -0.068, D -0.065
K31: W -0.246, P -0.142, A -0.019, L -0.092, G -0.047, N -0.166, Q -0.04, V -0.115, H -0.119, I -0.136, D -0.114, T -0.036, S -0.033, R 0.002, M -0.168, E -0.064, C -0.054, Y -0.178, F -0.336
L27: C -0.057, W -0.105, D -0.012, Y 0.026, E -0.059, V 0.015, R 0.006, M -0.033, N -0.019, G -0.049, T -0.092, H -0.043, A 0.041, P -0.39, I -0.069, S -0.073
M29: A -0.131, P -0.664, H -0.681, D -0.314, Q -0.463, L 0.072, F -0.146, Y -0.611, N -0.616, E -0.976, S -0.552, R -0.655, W -0.557, V 0.003, K -0.95, C -0.076, I -0.211, T -0.075
V25: P -0.915, M -0.291, I -0.098, G -1.05, E -0.926, H -0.996, R -0.696, Q -1.03, C -0.229, T -0.302, W -0.692, F -0.548, K -0.894, S -0.453, A -0.01

Reference: the Human Domainome abundance scans (Beltran et al. 2025)
